As usually defined, the Kd is the constant that tells how readily two partners part at equilibrium. Read a low Kd as higher affinity.

Our source for the Kd values is the FLAb antibody collection (doi:10.1101/2023.12.08.570889).

The test deals with TSLP, Q969D9. Put plainly: Kd (SPR).

B1: unnamed (protein)
chain 1: QMQLVESGGGVVQPGRSLRLSCAASGFTFSTYAMHWVRQAPGKGLEWVAVIWYDGSNKHYADSVKGRFTITRDNSKNTLNLQMNSLRAEDTAVYYCARAPRYYEYWEAFDVWGQGTMVTVSS
chain 2: SYVLTQPPSVSVAPGQTARITCGGNNLGSKSVHWYQQKPGQAPVLVVYDDSDRPSWIPERFSGSNSGNTATLTISRGEAGDEADYYCQVWDSSSDHVVFGGGTKLTVL
Regarding B1, the Kd stood at 285 nM.

B2: unnamed (protein)
chain 1: QMQLVESGGGVVQPGRSLRLSCAASGFTFSTYAMHWVRQAPGKGLEWVAVIWYDGSNKHYADSVKGRFTITRDNSKNTLNLQMNSLRAEDTAVYYCARAPRYDYYYEAFDVWGQGTMVTVSS
chain 2: SYVLTQPPSVSVAPGQTARITCGGNNLGSKSVHWYQQKPGQAPVLVVYDDSDRPSWIPERFSGSNSGNTATLTISRGEAGDEADYYCQVWDSSSDHVVFGGGTKLTVL
As to B2, the Kd worked out at 315 nM.

B3: unnamed (protein)
chain 1: QMQLVESGGGVVQPGRSLRLSCAASGFTFSTFAMHWVRQAPGKGLEWVAVIWYDGSNKHYADSVKGRFTITRDNSKNTLNLQMNSLRAEDTAVYYCARAPRYDWDYEAFDVWGQGTMVTVSS
chain 2: SYVLTQPPSVSVAPGQTARITCGGNNLGSKSVHWYQQKPGQAPVLVVYDDSDRPSWIPERFSGSNSGNTATLTISRGEAGDEADYYCQVWDSSSDHVVFGGGTKLTVL
In turn, B3 displayed a Kd of 349 nM.

B4: unnamed (protein)
chain 1: QMQLVESGGGVVQPGRSLRLSCAASGFTFSTFAMHWVRQAPGKGLEWVAVIWYDGSNKHYADSVKGRFTITRDNSKNTLNLQMNSLRAEDTAVYYCARAPRYDEAYEAFDVWGQGTMVTVSS
chain 2: SYVLTQPPSVSVAPGQTARITCGGNNLGSKSVHWYQQKPGQAPVLVVYDDSDRPSWIPERFSGSNSGNTATLTISRGEAGDEADYYCQVWDSSSDHVVFGGGTKLTVL
As for B4, the Kd stood at 502 nM.

B5: unnamed (protein)
chain 1: QMQLVESGGGVVQPGRSLRLSCAASGFTFSTYAMHWVRQAPGKGLEWVAVIWYDGSNKHYADSVKGRFTITRDNSKNTLNLQMNSLRAEDTAVYYCARAPRYYEYYEAFDVWGQGTMVTVSS
chain 2: SYVLTQPPSVSVAPGQTARITCGGNNLGSKSVHWYQQKPGQAPVLVVYDDSDRPSWIPERFSGSNSGNTATLTISRGEAGDEADYYCQVWDSSSDHVVFGGGTKLTVL
For the molecule B5, the Kd is 105 nM.

B6: unnamed (protein)
chain 1: QMQLVESGGGVVQPGRSLRLSCAASGFTFSTFAMHWVRQAPGKGLEWVAVIWYDGSNKHYADSVKGRFTITRDNSKNTLNLQMNSLRAEDTAVYYCARAPRYYWYWEAFDVWGQGTMVTVSS
chain 2: SYVLTQPPSVSVAPGQTARITCGGNNLGSKSVHWYQQKPGQAPVLVVYDDSDRPSWIPERFSGSNSGNTATLTISRGEAGDEADYYCQVWDSSSDHVVFGGGTKLTVL
In turn, B6 returned a Kd of 353 nM.

B7: unnamed (protein)
chain 1: QMQLVESGGGVVQPGRSLRLSCAASGFTFSTYAMHWVRQAPGKGLEWVAVIWYDGSNKHYADSVKGRFTITRDNSKNTLNLQMNSLRAEDTAVYYCARSPRYDYYYEAFDVWGQGTMVTVSS
chain 2: SYVLTQPPSVSVAPGQTARITCGGNNLGSKSVHWYQQKPGQAPVLVVYDDSDRPSWIPERFSGSNSGNTATLTISRGEAGDEADYYCQVWDSSSDHVVFGGGTKLTVL
Consider B7, for which the Kd turned out to be 524 nM.

B8: unnamed (protein)
chain 1: QMQLVESGGGVVQPGRSLRLSCAASGFTFSTYAMHWVRQAPGKGLEWVAVIWYDGSNKHYADSVKGRFTITRDNSKNTLNLQMNSLRAEDTAVYYCARAPRYYDYWEAFDVWGQGTMVTVSS
chain 2: SYVLTQPPSVSVAPGQTARITCGGNNLGSKSVHWYQQKPGQAPVLVVYDDSDRPSWIPERFSGSNSGNTATLTISRGEAGDEADYYCQVWDSSSDHVVFGGGTKLTVL
In turn, B8 yielded a Kd of 285 nM.

B9: unnamed (protein)
chain 1: QMQLVESGGGVVQPGRSLRLSCAASGFTFSTFAMHWVRQAPGKGLEWVAVIWYDGGNKHYADSVKGRFTITRDNSKNTLNLQMNSLRAEDTAVYYCARAPRYDEYYEAFDVWGQGTMVTVSS
chain 2: SYVLTQPPSVSVAPGQTARITCGGNNLGSKSVHWYQQKPGQAPVLVVYDDSDRPSWIPERFSGSNSGNTATLTISRGEAGDEADYYCQVWDSSSDHVVFGGGTKLTVL
Turning to B9, the Kd was found to be 217 nM.

B10: unnamed (protein)
chain 1: QMQLVESGGGVVQPGRSLRLSCAASGFTFSTFAMHWVRQAPGKGLEWVAVIWYDGSNKHYADSVKGRFTITRDNSKNTLNLQMNSLRAEDTAVYYCARSPRYDDYWEAFDVWGQGTMVTVSS
chain 2: SYVLTQPPSVSVAPGQTARITCGGNNLGSKSVHWYQQKPGQAPVLVVYDDSDRPSWIPERFSGSNSGNTATLTISRGEAGDEADYYCQVWDSSSDHVVFGGGTKLTVL
In the case of B10, the Kd was found to be 320 nM.

B11: unnamed (protein)
chain 1: QMQLVESGGGVVQPGRSLRLSCAASGFTFSTFAMHWVRQAPGKGLEWVAVIWYDGSNKHYADSVKGRFTITRDNSKNTLNLQMNSLRAEDTAVYYCARAPRYDYYLEAFDVWGQGTMVTVSS
chain 2: SYVLTQPPSVSVAPGQTARITCGGNNLGSKSVHWYQQKPGQAPVLVVYDDSDRPSWIPERFSGSNSGNTATLTISRGEAGDEADYYCQVWDSSSDHVVFGGGTKLTVL
B11 yielded a dissociation constant (Kd) of 519 nM.

B12: unnamed (protein)
chain 1: QMQLVESGGGVVQPGRSLRLSCAASGFTFSTFAMHWVRQAPGKGLEWVAVIWYDGSNKHYADSVKGRFTITRDNSKNTLNLQMNSLRAEDTAVYYCARSPRYDEYYEAFDVWGQGTMVTVSS
chain 2: SYVLTQPPSVSVAPGQTARITCGGNNLGSKSVHWYQQKPGQAPVLVVYDDSDRPSWIPERFSGSNSGNTATLTISRGEAGDEADYYCQVWDSSSDHVVFGGGTKLTVL
B12 showed a Kd of 103 nM.

B13: unnamed (protein)
chain 1: QMQLVESGGGVVQPGRSLRLSCAASGFTFSTFAMHWVRQAPGKGLEWVAVIWYDGSNKHYADSVKGRFTITRDNSKNTLNLQMNSLRAEDTAVYYCARAPRYDEYLEAFDVWGQGTMVTVSS
chain 2: SYVLTQPPSVSVAPGQTARITCGGNNLGSKSVHWYQQKPGQAPVLVVYDDSDRPSWIPERFSGSNSGNTATLTISRGEAGDEADYYCQVWDSSSDHVVFGGGTKLTVL
For the molecule B13, the Kd amounted to 305 nM.

B14: unnamed (protein)
chain 1: QMQLVESGGGVVQPGRSLRLSCAASGFTFSTFAMHWVRQAPGKGLEWVAVIWYDGSNKHYADSVKGRFTITRDNSKNTLNLQMNSLRAEDTAVYYCARSPRYDYYYEAFDVWGQGTMVTVSS
chain 2: SYVLTQPPSVSVAPGQTARITCGGNNLGSKSVHWYQQKPGQAPVLVVYDDSDRPSWIPERFSGSNSGNTATLTISRGEAGDEADYYCQVWDSSSDHVVFGGGTKLTVL
As to B14, the Kd stood at 372 nM.

B15: unnamed (protein)
chain 1: QMQLVESGGGVVQPGRSLRLSCAASGFTFSTFAMHWVRQAPGKGLEWVAVIWYDGSNKHYADSVKGRFTITRDNSKNTLNLQMNSLRAEDTAVYYCARAPRYDDAYEAFDVWGQGTMVTVSS
chain 2: SYVLTQPPSVSVAPGQTARITCGGNNLGSKSVHWYQQKPGQAPVLVVYDDSDRPSWIPERFSGSNSGNTATLTISRGEAGDEADYYCQVWDSSSDHVVFGGGTKLTVL
Molecule B15 showed a Kd of 387 nM.
